# Laboratory results as given in US20260049134A1 (UNIVERSITY OF FLORIDA RESEARCH FOUNDATION, published 2026).
# T1: CADM1, endogenous in H929 multiple myeloma cells (human, UniProt Q9BY67 45-442)
# T1 construct: Native protein on H929 cells (flow cytometry, siRNA knockdown) and in H929 lysates (IP/MS); also called IGSF4A
# T1 sequence: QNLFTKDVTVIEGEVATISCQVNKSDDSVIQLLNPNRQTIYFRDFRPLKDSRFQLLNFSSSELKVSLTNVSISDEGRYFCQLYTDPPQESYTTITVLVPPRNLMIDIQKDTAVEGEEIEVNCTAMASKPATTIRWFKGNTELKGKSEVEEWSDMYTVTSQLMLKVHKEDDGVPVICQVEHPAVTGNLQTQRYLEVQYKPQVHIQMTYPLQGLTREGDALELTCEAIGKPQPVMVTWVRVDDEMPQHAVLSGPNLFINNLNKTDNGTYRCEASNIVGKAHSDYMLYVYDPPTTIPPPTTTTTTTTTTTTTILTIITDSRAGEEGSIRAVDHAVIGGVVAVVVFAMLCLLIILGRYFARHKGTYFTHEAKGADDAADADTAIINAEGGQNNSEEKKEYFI
# T2: GARS-His (Sino Biological) (human, UniProt P41250 37-739, limits assumed)
# T2 construct: Bought; also called GARS1; glycyl-tRNA synthetase; not shown: His tag of the bought protein
# T2 sequence: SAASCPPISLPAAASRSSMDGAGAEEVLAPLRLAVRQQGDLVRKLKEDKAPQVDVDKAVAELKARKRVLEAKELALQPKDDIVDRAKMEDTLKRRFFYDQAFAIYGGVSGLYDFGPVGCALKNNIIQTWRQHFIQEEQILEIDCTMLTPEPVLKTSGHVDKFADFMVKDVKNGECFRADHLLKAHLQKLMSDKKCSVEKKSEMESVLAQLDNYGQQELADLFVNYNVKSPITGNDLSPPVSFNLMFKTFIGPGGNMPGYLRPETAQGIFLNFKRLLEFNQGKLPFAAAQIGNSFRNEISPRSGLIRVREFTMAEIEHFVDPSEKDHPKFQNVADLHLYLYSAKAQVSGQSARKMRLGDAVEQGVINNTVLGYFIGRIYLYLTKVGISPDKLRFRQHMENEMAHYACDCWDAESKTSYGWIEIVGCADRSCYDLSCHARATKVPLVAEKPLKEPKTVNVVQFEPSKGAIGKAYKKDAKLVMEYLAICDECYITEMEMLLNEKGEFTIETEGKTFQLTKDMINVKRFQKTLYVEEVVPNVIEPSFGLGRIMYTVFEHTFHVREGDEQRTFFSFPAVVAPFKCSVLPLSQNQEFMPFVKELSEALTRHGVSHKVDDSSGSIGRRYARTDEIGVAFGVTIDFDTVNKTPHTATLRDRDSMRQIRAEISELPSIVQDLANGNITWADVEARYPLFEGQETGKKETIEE
# Key:
# [1] = biological target: T3, PTPRG, endogenous in H929 multiple myeloma cells (human, UniProt P23470 20-1445); assay: flow cytometry, AF647-IgG1 on H929 cells
# T3 construct: Native protein on H929 cells (flow cytometry, siRNA knockdown) and in H929 lysates (IP/MS); also called phosphatase receptor type γ
# T3 sequence (P23470 20-1445 limits assumed): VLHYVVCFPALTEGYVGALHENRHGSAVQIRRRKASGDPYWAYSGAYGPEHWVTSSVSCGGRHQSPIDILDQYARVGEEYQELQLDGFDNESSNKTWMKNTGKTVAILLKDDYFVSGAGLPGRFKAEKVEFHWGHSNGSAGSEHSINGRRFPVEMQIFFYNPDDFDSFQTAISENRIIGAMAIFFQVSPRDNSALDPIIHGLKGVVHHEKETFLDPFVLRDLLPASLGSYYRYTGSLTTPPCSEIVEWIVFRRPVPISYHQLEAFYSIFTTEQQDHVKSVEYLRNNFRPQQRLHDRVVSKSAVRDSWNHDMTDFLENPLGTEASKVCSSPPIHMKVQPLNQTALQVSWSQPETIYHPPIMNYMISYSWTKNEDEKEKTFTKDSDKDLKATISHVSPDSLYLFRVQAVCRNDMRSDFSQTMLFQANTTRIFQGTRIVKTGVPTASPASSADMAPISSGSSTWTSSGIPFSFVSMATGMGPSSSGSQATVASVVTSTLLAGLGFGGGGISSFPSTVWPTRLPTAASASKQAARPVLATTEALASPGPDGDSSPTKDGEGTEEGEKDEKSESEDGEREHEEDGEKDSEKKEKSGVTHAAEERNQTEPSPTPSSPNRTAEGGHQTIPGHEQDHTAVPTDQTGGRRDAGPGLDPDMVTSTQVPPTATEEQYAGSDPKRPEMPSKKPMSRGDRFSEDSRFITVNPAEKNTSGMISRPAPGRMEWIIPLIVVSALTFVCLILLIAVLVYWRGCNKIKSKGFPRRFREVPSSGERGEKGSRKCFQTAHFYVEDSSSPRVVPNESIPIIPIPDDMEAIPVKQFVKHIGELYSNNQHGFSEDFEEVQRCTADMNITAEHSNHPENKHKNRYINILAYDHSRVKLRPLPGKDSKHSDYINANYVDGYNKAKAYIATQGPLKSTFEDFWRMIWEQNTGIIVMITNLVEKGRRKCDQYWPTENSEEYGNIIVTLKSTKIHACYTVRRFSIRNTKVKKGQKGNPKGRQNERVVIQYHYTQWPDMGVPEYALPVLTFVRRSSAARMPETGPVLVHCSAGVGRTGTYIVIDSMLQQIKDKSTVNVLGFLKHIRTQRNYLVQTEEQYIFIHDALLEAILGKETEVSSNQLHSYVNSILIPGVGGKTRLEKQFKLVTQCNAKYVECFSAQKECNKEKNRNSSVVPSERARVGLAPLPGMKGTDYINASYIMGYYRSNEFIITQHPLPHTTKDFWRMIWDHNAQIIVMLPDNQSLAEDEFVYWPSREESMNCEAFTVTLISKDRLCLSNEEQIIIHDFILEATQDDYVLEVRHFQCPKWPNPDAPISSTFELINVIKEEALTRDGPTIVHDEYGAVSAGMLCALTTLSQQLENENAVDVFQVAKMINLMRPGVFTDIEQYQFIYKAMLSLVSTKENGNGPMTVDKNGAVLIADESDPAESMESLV
# Method: (§1) Staining protocol. Cells were harvested (5×10⁴ cells per sample), washed once with phosphate-buffered saline (PBS) at RT, and a second time with ice-cold FACS buffer (PBS, 0.5% BSA, 2 mM EDTA, 0.1% NaN₃). Cells were stained in 50 μL of primary antibody for 30 min on ice, washed twice with 100 μL FACS buffer, stained with 50 μL of diluted secondary antibody, washed two more times in FACS, and then resuspended in 50 μL FACS buffer. Samples were acquired on an Accuri C6 Plus or a BD FACSCanto II flow cytometer (both from BD Biosciences). Data were analyzed using FlowJo version 10 software. Primary antibodies: Fab (10 μg/mL), IgG1 (0.1 to 50 μg/mL), or 25 μL polyclonal Fabs from periplasmic extracts. Polyclonal Fabs were produced by diluting bacterial stocks by a factor of 100 in autoinduction media and incubating overnight to induce expression as previously described. […] Viability stains: DAPI (Cell Signaling Technology) or SYTOX AADvanced Dead Cell Stain (Thermo Fisher Scientific). Labeling: The panel of chimeric rabbit/human IgG1s was labeled using the Alexa Fluor 647 Labeling Kit (Thermo Fisher Scientific, #A20173) to facilitate single-step staining. Competition: Unlabeled IgG1s were added at saturating concentrations of 60 μg/mL to block the target receptors, incubating on ice for 30 min, followed by the addition of an equal volume of the Alexa Fluor 647 labeled antibody at 2 μg/mL, and the mixture was incubated on ice for another 30 min.
# [2] = biological target: T1, CADM1, endogenous in H929 multiple …; assay: flow cytometry, AF647-IgG1 on H929 cells
# Method: as §1
# [3] = biological target: T4, ICAM1, endogenous in H929 multiple myeloma cells (human, UniProt P05362 28-532); assay: flow cytometry, AF647-IgG1 on H929 cells
# T4 construct: Native protein on H929 cells (flow cytometry, siRNA knockdown) and in H929 lysates (IP/MS); also called CD54
# T4 sequence (P05362 28-532 limits assumed): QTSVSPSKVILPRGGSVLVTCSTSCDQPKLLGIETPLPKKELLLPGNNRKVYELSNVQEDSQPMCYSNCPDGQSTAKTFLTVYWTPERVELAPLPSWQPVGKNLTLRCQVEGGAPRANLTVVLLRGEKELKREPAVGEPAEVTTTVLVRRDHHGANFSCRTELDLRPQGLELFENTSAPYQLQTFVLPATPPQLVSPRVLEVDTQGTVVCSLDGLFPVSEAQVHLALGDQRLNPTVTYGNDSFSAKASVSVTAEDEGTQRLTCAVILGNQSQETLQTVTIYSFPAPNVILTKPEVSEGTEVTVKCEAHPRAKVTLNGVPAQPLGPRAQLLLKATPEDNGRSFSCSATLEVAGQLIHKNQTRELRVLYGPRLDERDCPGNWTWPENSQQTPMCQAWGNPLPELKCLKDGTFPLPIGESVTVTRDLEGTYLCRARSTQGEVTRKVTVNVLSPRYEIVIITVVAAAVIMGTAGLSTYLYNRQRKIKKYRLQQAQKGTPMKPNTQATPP
# Method: as §1
# [4] = biological target: T3, PTPRG, endogenous in H929 multiple …; assay: flow cytometry, H929 + CDH18 siRNA; None 0.19
# [5] = biological target: T2, GARS-His (Sino Biological); assay: ELISA, coated recombinant GARS-His, anti-human Fab-peroxidase detection
# Method: ELISA ELISA was conducted as described previously. Briefly, 50-150 ng of antigen was coated overnight in half-area 96-well plates at 4° C., blocked with 3% BSA at 37° C. for 1 h, and 150 ng of chimeric rabbit/human IgG1 was added, incubating for 2 h at 37° C. […] After incubating at 37° C. for 15 min-1 h (depending on intensity of controls), data were acquired using a SpectraMax M5 plate reader (Molecular Devices).
# [6] = biological target: T1, CADM1, endogenous in H929 multiple …; assay: flow cytometry, H929 + CDH18 siRNA; None 0.19
# [7] = biological target: T4, ICAM1, endogenous in H929 multiple …; assay: flow cytometry, H929 + CADM1 siRNA; None 0.89
# [8] = biological target: T4, ICAM1, endogenous in H929 multiple …; assay: flow cytometry, H929 + CDH18 siRNA; None 0.19
# [9] = biological target: T3, PTPRG, endogenous in H929 multiple …; assay: flow cytometry, IgG1 on cell lines, heatmap of % positive cells
binder,measurement,setting,value
"TH9-0022 (antibody, human IgG1, kappa, L234A L235A, V domains shown, also called TH9-022; negative control) VH: QSLEESGGRLVTPGTPLTLTCTVSGFSLSSYAMNWVRQAPGKGLEWIGIINSYGSTYYASWAKGRFTISKTSTTVDLKITSPTTEDTATYFCARVTYDSYGYGYAPYGMDLWGPGTLVTVSS VL: LVMTQTPSSTSNAVGGTVTIKCQASQSIGNVLAWYQQKPGQPPKLLIYAASTLASGVPSRVGGSRSGTEYTLTISGVQREDAATYYCLGSDSDSDIAFGGGTELEILR",binding result,[1],no binding
same,binding result,[2],no binding
same,binding result,[3],no binding
"HW-42 chimeric rabbit-human IgG1 LA/LA/PG (antibody, V domains shown, Fc-silenced (L234A/L235A/P329G) IgG1, lambda; Alexa Fluor 647-labeled in single-step flow cytometry; Cluster C-1) VH: QSVKESEGGLFKPADTLTLTCTVSGFSLSSNEISWVRQAPGEGLEYIGIIDTGGRAYYAVWARSRSTITRNTNLNTVTLKMTSLTAADTATYFCARGGVDTEWYAFSSWGPGTLVTVPS VL: SFVLTQPASVQVNLGQTVSLTCTADTLSRRYASWYQQKPGQAPVLLIFRDTSRPSGVPDRFSGSSSGDTATLTISGAQAGDEADYYCATSDGSGSNYQYVFGGGTQLTVTG",Cells stained (%),[4],99.5%
"HW-8 chimeric rabbit-human IgG1 LA/LA/PG (antibody, V domains shown, Fc-silenced (L234A/L235A/P329G) IgG1, kappa; Alexa Fluor 647-labeled in single-step flow cytometry; Cluster C-45) VH: QSLEESGGRLVTPGTPLTLTCTVSGFSLSSYAMSWVRQAPGKGLEWIGAISTGGSTTYASWAKGRFTISKTSSTTVDLKMTSLTTEDTATYFCVRHFRLWGPGTLVTISS VL: QVLTQTPSSVSAAVGGTVTIKCQASQSIGSALAWFQQKPGQRPKLLIYRASNLASGVPSRFKGSGSGTEFALTISGVQREDAATYYCLGGAAAVWAFGAGTNVEIKR",binding result,[5],no binding (tested: 150 ng of IgG1 per well)
"HW-97 chimeric rabbit-human IgG1 LA/LA/PG (antibody, V domains shown, Fc-silenced (L234A/L235A/P329G) IgG1, lambda; Alexa Fluor 647-labeled in single-step flow cytometry; Prototype of cluster C-97) VH: QKQLVESGGRLVTPGTPLTLTCTVTGIDLSSHGMSWVRQAPGKGLEWIGVIYPSGSTWYASWARGRFTISKTSTTVDLKMTSLTTEDTATHFCARGDVGGADNNIWGPGTLVTVSS VL: SFVLTQPASVQVDLGQTVSLTCTAETLSRSYASWYQQKPGQAPVLLIYRDTSRPSGVPDRFSGSSSGNTATLTISGAQAGDEADYYCATSDGSGSSYQYVFGGGTQLTVTG",Cells stained (%),[6],99.7%
"HW-113 chimeric rabbit-human IgG1 LA/LA/PG (antibody, V domains shown, Fc-silenced (L234A/L235A/P329G) IgG1, lambda; Alexa Fluor 647-labeled in single-step flow cytometry) VH: QKQLVESGGGLVQPGGSLTLTCTVSGFSLNKYYMGWFRQAPGKGLEWIGVISRSGDTYYSSWAKGRFTISKASTTVDLRITSPTTEDTATYFCARDASSPGFHGDRLDLWGQGTLVTVSS VL: SFVLTQPASVQVNLGQTVSLTCTADTLSRSYASWYQQKPGQAPVLLIYRDTSRPSGVPDRFSGSSSGNTATLTISGAQAGDEADYYCATSDGIGSNYLWVFGGGTQLTVTG",Cells stained (%),[7],99.7%
same,Cells stained (%),[8],98.8%
"TH9-0022 (antibody, human IgG1, kappa, L234A L235A, V domains shown, also called TH9-022; negative control IgG1) VH: QSLEESGGRLVTPGTPLTLTCTVSGFSLSSYAMNWVRQAPGKGLEWIGIINSYGSTYYASWAKGRFTISKTSTTVDLKITSPTTEDTATYFCARVTYDSYGYGYAPYGMDLWGPGTLVTVSS VL: LVMTQTPSSTSNAVGGTVTIKCQASQSIGNVLAWYQQKPGQPPKLLIYAASTLASGVPSRVGGSRSGTEYTLTISGVQREDAATYYCLGSDSDSDIAFGGGTELEILR",binding result,[9],no binding
